The values below come from patent US6071715, “Nucleic acids encoding novel proteins which bind to retinoblastoma protein” (Board of Regents, The University of Texas System, dated 2000).

In the assay the target is p56Rb, carboxyl terminus of the Rb protein (Homo sapiens (Human), UniProt P06400). As to the kind of experiment: native polyacrylamide gel of the purified proteins, silver stain.

B1: chimeric p48 protein containing a modified C-terminus, encoded by plasmid pET-48NB (other)
chain: MADKEAAFDDAVEERVINEEYKIWKKNTPFLYDLVMTHALEWPSLTAQWLPDVTRPEGKDFSIHRLVLGTHTSDEQNHLVIASVQLPNDDAQFDASHYDSEKGEFGGFGSVSGKIEIEIKINHEGEVNRARYMPQNPCIIATKTPSSDVLVFDYTKHPSKPDPSGECNPDLRLRGHQKEGYGLSWNPNLSGHLLSASDDHTICLWDISAVPKEGKVVDAKTIFTGHTAVVEDVSWHLLHESLFGSVADDQKLMIWDTRSNNTSKPSHSVDAHTAEVNCLSFNPYSEFILATGSADKTVALWDLRNLKLKLHSFESHKDEIFQVQWSPHNETILASSGTDRRLNVWDLSKIGEEQSPEDAEDGPPELLFIHGGHTAKISDFSWNPNEPWVICSVSEDNIMQVWQMAENIYNDEDPEGSVDPAANKARKEAELAAANAEQ
On to B1, for which the binding result is on record as “binds”.
